In experiment [1] the target is T1, native human IP-10 (hIP-10) (human, UniProt P02778 22-98).
T1 sequence (looked up): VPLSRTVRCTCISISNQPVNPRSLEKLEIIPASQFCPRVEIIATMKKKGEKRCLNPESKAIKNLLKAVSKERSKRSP
The experiment is described as follows: cell-based or functional assay.

Experiment [2] deals with T2, hIP-10 immobilized on glycosaminoglycan (FITC-labeled heparin) (human, UniProt P02778 22-98).
T2 construct: mature; also called hIP-10 on GAG; hIP-10 immobilized on GAG
T2 sequence (looked up): T1 sequence (looked up)
Nature of the experiment: capture assay: IgG captured on coated anti-human Fc, FITC-heparin pre-incubated with hIP-10 added, revealed with HRP-coupled anti-FITC Fab. The procedure:
As with many chemokines, hIP-10 is able to oligomerize and bind to glycosaminoglycans (GAG) expressed at surface of cells such as endothelial cells. In order to make sure that the antibodies were able to bind to hIP-10 in this context, they were tested in the following assay. Maxisorb 96 well plates were coated with anti-human Fc (Jackson, West Grove, Pa.) as capturing reagent for the human IgG to be tested. FITC-labeled heparin (Sigma, St. Louis, Mo.) was used as a prototypic GAG and was incubated with hIP-10 before addition to the captured anti-hIP10 antibodies. […] As shown in FIG. 4 some antibodies were able to bind hIP-10 when bound to GAG whereas others were unable to do so probably because their epitope on hIP-10 was no longer accessible within the oligomeric structure.

Experiment [3] deals with T3, recombinant human IP-10 (hIP-10) (human, UniProt P02778 22-98).
T3 sequence (looked up): T1 sequence (looked up)
The experiment is described as follows: cell-based or functional assay.

The target in experiment [4] is T3, recombinant human IP-10 (hIP-10). The experiment is described as follows: SPR (Biacore 2000). The procedure:
(§1) 200RU (response unit) of a goat anti-human polyclonal IgG (ahIgG; Biacore AB, Uppsala, Sweden) were immobilized by EDC/NHS chemistry on a C1 Biacore chip. […] The surface was regenerated after each cycle by injection of 10 mM glycine pH=1.5 at 30 μL/min, for 30s followed by 1 min. of stabilization time in HBS-EP buffer.
(§2) Binding was measured by passing either hIP-10 (Peprotech, Rocky Hill N.J.) or a NusA-hIP-10 fusion protein at the following concentrations: 34.7 nM, 11.6 nM, 3.85 nM, 1.28 nM, 0.428 nM, 0.142 nM and 0 nM. All solutions were diluted in HBS-EP buffer (Biacore AB, Uppsala, Sweden). Injection was performed at 50 μl/min for 3 min. followed by 12 min. of dissociation time and the temperature was set at 25° C. […] Very similar values were obtained using rhIP-10 or the NusA-hIP-10 fusion, but better response signals were obtained with the fusion protein due to its larger size that induces a better response on the Biacore.

Experiment [5] concerns the target T4, NusA-hIP-10 fusion protein (human, UniProt P02778 22-98).
T4 construct: mature; not shown: NusA fusion partner encoded by expression plasmid pET43 (Novagen); vector-encoded linker with Factor X protease cleavage site at the C-terminus of NusA; AviTag biotinylation site (Avidity) at the C-terminus of the chemokine
T4 sequence (looked up): T1 sequence (looked up)
Nature of the experiment: capture ELISA: NI-0801 coated, concentration range of NusA fusion protein, revealed with anti-NusA antibody. The text has this: (§3) Briefly, IP-10 cloned from cDNA isolated from mouse, rat, rabbit and cynomolgus as well as a panel of human chemokines was expressed and purified as described in Example 1.

Experiment [6] deals with T5, NusA-mouse IP-10 fusion protein (mouse, UniProt P17515 22-98).
T5 construct: mature; not shown: NusA fusion partner encoded by expression plasmid pET43 (Novagen); vector-encoded linker with Factor X protease cleavage site
T5 sequence (looked up): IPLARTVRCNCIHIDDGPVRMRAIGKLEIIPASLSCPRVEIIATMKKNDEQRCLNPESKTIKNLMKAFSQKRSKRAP
The experiment is described as above.
Description: as §3

The target in experiment [7] is T6, NusA-rat IP-10 fusion protein (rat, UniProt P48973 22-98).
T6 construct: mature; not shown: NusA fusion partner encoded by expression plasmid pET43 (Novagen); vector-encoded linker with Factor X protease cleavage site
T6 sequence (looked up): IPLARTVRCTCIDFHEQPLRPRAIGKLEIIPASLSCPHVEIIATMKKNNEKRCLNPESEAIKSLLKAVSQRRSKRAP
Described as above.
Description: as §3

The target in experiment [8] is T7, NusA-cynomolgus IP-10 fusion protein (cynomolgus, UniProt A0A2K5WKN6 22-98).
T7 construct: mature; not shown: NusA fusion partner encoded by expression plasmid pET43 (Novagen); vector-encoded linker with Factor X protease cleavage site
T7 sequence: T1 sequence (looked up) with V1I, A32P, R38H
The description is as above.
Description: as §3

The target of experiment [9] is T3, recombinant human IP-10 (hIP-10). The experiment is described as follows: SPR (Biacore 2000): IgG1 captured on anti-human IgG, IP-10 in solution, 25 C, 1:1 Langmuir fit. As for the experimental part:
as §1, §2

Substitutions are numbered along the chain they refer to.

B1: CC21R3P1_A2, IgG1 format (antibody, V domains shown)
VH: QLVESGGGLIQPGGSLRLSCAASGFSVSDTYMNWVRQAPGKGLEWVSSIYSDDSTYYADSVKGRFTISRDNSKNTLFLQINSLRAEDTAVYYCARDKEYVTSTGGAYYYFYYMDVWGQGTLVTVSS
VL: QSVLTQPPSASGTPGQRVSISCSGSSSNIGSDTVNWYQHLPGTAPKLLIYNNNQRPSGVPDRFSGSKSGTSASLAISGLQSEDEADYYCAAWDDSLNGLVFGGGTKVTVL
Turning to B1, the “Chemotaxis IC50 (nM); native hIP-10 at 0.6 nM” value (from here on “Chemotaxis IC50 … at 0.6 nM”) in experiment [1] was determined as 6.2 nM. In addition, the binding result in experiment [2] was “no binding”. Besides, in experiment [3], the “Calcium flux IC50 (nM); 10 nM rhIP-10” value is 9.8 nM and the “Chemotaxis IC50 (nM); 1 nM rhIP-10” value was 3.2 nM.

B2: NI-0801, IgG1 format (antibody, V domains shown)
VH: QVQLVESGGGVVQPGRSLRLSCAASGFTFSNSGIHWVRQAPGKGLEWVAVISYDGSNKYYADSVKGRFTISRDNSKNTLYLQMNSLRAEDTAVYYCARLRDNAEYTDYWGQGTLVTVSS
VL: NFMLTQPHSVSESPGKTVTISCTGSGGSIASNYVQWYQQRPGSSPTTVIYEDNQRPSGVPDRFSGSIDSSSNSASLTISGLKTEDEADYYCQSYDPLPVWVFGGGTKLTVLG
notes: Claims 7 and 21 swap the heavy and light chain numbers
Take B2: the “Chemotaxis IC50 … at 0.6 nM” value in experiment [1] came out at 0.58 nM. The “fold improvement of affinity over CC21R3P1_F1” value in experiment [4] came out at 90 fold. For the same molecule, the “EC50 (read off the curve)” value in experiment [5] was ~3 nM; in [8], ~1 nM. Further, the binding result in [6] and in experiment [7] was “no binding (tested: about 2e-7 M)” throughout. For the same molecule, the Kd in experiment [9] amounted to 0.109 nM. Moreover, in experiment [3], the “Calcium flux IC50 (nM); 10 nM rhIP-10” value was determined as 6.3 nM. Further, the “Chemotaxis IC50 (nM); 0.2 nM rhIP-10” value in experiment [3] amounted to 0.24 nM.

B3: CC21R3P1_F1, IgG1 format (antibody, V domains shown)
VH: QVQLVESGGGVVQPGRSHTLSCAASGFAFKNSGIHWVRQAPGKGLEWVAVISYDGSNKFYADSVKGRFTISRDNSQNTVYLQMTDLRPDDTAVYYCARDGSESEYLDYWGKGTLVTVSS
VL: NFMLTQPHSVSESPGKTVTISCTGSGGSIDRNYVQWYQQRPGSAPITVIYEDNQRPSGVPDRFSGSIDSSSNSASLTISGLRTDDEADYYCQSYDSINLWVFGGGTKVTVL
B3: in experiment [1], the “Chemotaxis IC50 … at 0.6 nM” value was found to be 11 nM. Moreover, the Kd in experiment [9] was 9.2 nM. Besides, in experiment [3], the “Calcium flux IC50 (nM); 10 nM rhIP-10” value came out at 9.8 nM and the “Chemotaxis IC50 (nM); 1 nM rhIP-10” value was 3 nM.

B4: CB21R3P6_G7, IgG1 format (antibody, V domains shown)
VH: QVQLVQSGAEVKKPGSSVTVSCKASGGTFSSFSITWLRQAPGQGLEWMGEITPMFGIANYAQKFQGRVTISADESTSTAYMELSGLTSEDTAMYYCARDGRFDVSDLLTDKPKVTINYNGMDVWGQGTLVTVSS
VL: QSVLTQPPSASGTPGQRVTISCSGSSSNIGSNTVNWYQRLPGAAPQLLIYNNDQRPSGIPDRFSGSKSGTSGSLVISGLQSEDEADYYCASWDDSLNGRVFGGGTKLTVL
On to B4, for which the “Chemotaxis IC50 … at 0.6 nM” value in experiment [1] worked out at 7.8 nM. In [2], the binding result was “no binding”. For the same molecule, in experiment [3], the “Calcium flux IC50 (nM); 10 nM rhIP-10” value was found to be 6.2 nM and the “Chemotaxis IC50 (nM); 1 nM rhIP-10” value was 8.8 nM.

The record behind these values is patent US20100330094A1 (NOVIMMUNE S A, published 2010).
